Laboratory results published in patent publication US20020106690A1 (published 2002).
Where “and” joins values, the source holds several entries; their conditions need not be identical. Equal entries are not always repeated.

B2: Ste20p (enzyme)
chain: MSNDPSAVSELPDKDSLDNGISNDNERAMGGNGDGGDGLRLPRTTGTLNVNALQKGTNAAHEAGGYKSMDPAKNAETTNDDDNNVVSLDDPIQFTRVSSSSVISGMSSSMSPHSNIDETKSLEAVTPNINTSNITPDHSADNTFSTINASESDHQFNDTLLSKLSLTDSTETIENNATVKHQQPVASSTVNSNKSSTDIRRATPVSTPVISKPSMTTTPRQINSASHSLSNPKHKQHKPKVKPSKPEAKSKPVSVKKSFPSKNPLKNSSPPKKQTEKSYYSSSSKKRKSGSNSGTLRMKDVFTSFVQNIKRNSQDDKRASSSSNNSSSSSITTALRISTPYNAKHIHHVGVDSKTGEYTGLPEEWEKLLTSSGISKREQQQNMQAVMDIVKFYQDVTETNGEDKMFKTFNTTTGLPGSPQVSTPPANSFNKFPPSTSDSHNYGSRTGTPMSNHVMSPTLNTDSSSANGKFIPSRPAPKPPSSASASAPIIKSPVMNSAANVSPLKQTHAPTTPNRTSPNRSSISRNATLKKEEQPLPPIPPTKSKTSPIISTAHTPQQVAQSPKAPAQETVTTPTSKPAQARSLSKELNEKKREERERRKKQLYAKLNEICSDGDPSTKYANLVKIGQGASGGVYTAYEIGTNVSVAIKQMNLEKQPKKELIINEILVMKGSKHPNIVNFIDSYVLKGDLWVIMEYMEGGSLTDVVTHCILTEGQIGAVCRETLSGLEFLHSKGVLHRDIKSDNILLSMEGDIKLTDFGFCAQINELNLKRTTMVGTPYWMAPEVVSRKEYGPKVDIWSLGIMIIEMIEGEPPYLNETPLRALYLIATNGTPKLKEPENLSSSLKKFLDWCLCVEPEDRASATELLHDEYITEIAEANSSLAPLVKLARLKKVAENMDADEDNDDDNDNEHINKTNNCDDNNDSKETVNLDVTEDDKQK
notes: Full length Ste20p in yeast cells (endogenous, or from pDH166 / pSTE20-5); also called STE20^WT; wild-type Ste20p
B3: HA-Ste4p (other, Saccharomyces cerevisiae (yeast), UniProt P18851 1-423, looked up, not shown: small tags and cut ends)
chain: MAAHQMDSITYSNNVTQQYIQPQSLQDISAVEDEIQNKIEAARQESKQLHAQINKAKHKIQDASLFQMANKVTSLTKNKINLKPNIVLKGHNNKISDFRWSRDSKRILSASQDGFMLIWDSASGLKQNAIPLDSQWVLSCAISPSSTLVASAGLNNNCTIYRVSKENRVAQNVASIFKGHTCYISDIEFTDNAHILTASGDMTCALWDIPKAKRVREYSDHLGDVLALAIPEEPNSENSSNTFASCGSDGYTYIWDSRSPSAVQSFYVNDSDINALRFFKDGMSIVAGSDNGAINMYDLRSDCSIATFSLFRGYEERTPTPTYMAANMEYNTAQSPQTLKSTSSSYLDNQGVVSLDFSASGRLMYSCYTDIGCVVWDVLKGEIVGKLEGHGGRVTGVRSSPDGLAVCTGSWDSTMKIWSPGYQ

How the values were obtained:
[1] = biological target: T1, Ste4p, P18851
T1 chain: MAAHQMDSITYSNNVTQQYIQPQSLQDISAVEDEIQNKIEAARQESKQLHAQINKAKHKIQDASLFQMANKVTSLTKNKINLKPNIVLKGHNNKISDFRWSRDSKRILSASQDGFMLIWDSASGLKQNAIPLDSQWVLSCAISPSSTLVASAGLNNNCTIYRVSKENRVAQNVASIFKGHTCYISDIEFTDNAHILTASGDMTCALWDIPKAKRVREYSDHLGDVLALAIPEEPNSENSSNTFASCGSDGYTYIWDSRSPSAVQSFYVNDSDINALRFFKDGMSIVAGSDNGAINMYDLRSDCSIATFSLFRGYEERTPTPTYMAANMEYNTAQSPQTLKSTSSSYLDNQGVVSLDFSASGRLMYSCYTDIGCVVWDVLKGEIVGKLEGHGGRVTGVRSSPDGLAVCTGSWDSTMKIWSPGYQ

[2] = biological target: B3; assay: co-immunoprecipitation from yeast extracts, Western blot
[3] = biological target: B3; assay: co-immunoprecipitation from yeast extracts, densitometry of Western blots, against untreated cells
Procedure: (§1) (A) Time course of pheromone-induced Ste20p binding to HA-Ste4p. HA-Ste4p expressed from the STE4 promoter in cells deleted for STE4 was immunoprecipitated after treatment with 1 pM a-factor. Relative amounts of Ste20p and HA-Ste4p were determined in Western blots (see example in upper and middle panels) and quantified densitometrically (mean values ±SD, n=3) (lower panel). (B) Association of Ste5p with HA-Ste4p expressed from the STE4 promoter in cells deleted for STE4 . HA-Ste4p immunoprecipitates from exponentially growing (−) and pheromone-treated (90 minutes) (+) yeast cells were analyzed with antibodies to Ste5p (upper panel) or HA-Ste4p (lower panel). (C) Overexpression of Ste4p leads to binding to Ste20p. HA-Ste4p was overexpressed from the GAL1 promoter in cells deleted for STE20 (lane 1) or STE4 (lanes 2 and 3). HA-Ste4p expression was suppressed in glucose-containing medium in cells deleted for STE4 (lane 4). Immunoprecipitates obtained with antibodies to Ste20p (lanes 1 and 2) or the HA-epitope (lanes 3 and 4) were analyzed for the presence of Ste20p (upper panel) and HA-Ste4p (lower panel). (D) Coimmunoprecipitation of HA-Ste4p and Ste20p truncation mutants. […] HA-Ste4p (lanes 1 and 2) and Ste20p (lanes 3 and 4) immunoprecipitates were analyzed for the presence of Ste20p (upper panel) and HA-Ste4p (lower panel) by Western blot analyses. […]

[4] = biological target: B2; assay: co-immunoprecipitation from yeast extracts, anti-HA IP, Western blot
Procedure: as §1, with “Relative” for “(A) Time course of pheromone-induced Ste20p binding to HA-Ste4p. HA-Ste4p expressed from the STE4 promoter in cells deleted for STE4 was immunoprecipitated after treatment with 1 pM a-factor. Relative”, “HA-Ste4p expression was suppressed in glucose-containing medium in cells deleted for STE4 (lane 4).” left out, “panel).” for “panel). (D) Coimmunoprecipitation of HA-Ste4p and Ste20p truncation mutants.”
For the detection of Ste20p fragments, a secondary sheep antibody specific to rabbit immunoglobulin light chains and a tertiary HRP-conjugated donkey antibody to sheep IgG were obtained from The Binding Site, Lim. […] For quantitation, immunoblots were evaluated by integrating densitometry using an Epson ES 1200-C densitometer and the NIH Image 1.59 software.

[5] = biological target: T2, GST-Ste20p FL (Saccharomyces cerevisiae (yeast), UniProt Q03497 1-939); assay: GST pull-down of in vitro-translated HA-Ste18p
T2 construct: Purified on glutathione-Sepharose beads; also called GST fusion with full length Ste20p; not shown: glutathione S-transferase (GST), amino-terminal fusion partner
T2 sequence: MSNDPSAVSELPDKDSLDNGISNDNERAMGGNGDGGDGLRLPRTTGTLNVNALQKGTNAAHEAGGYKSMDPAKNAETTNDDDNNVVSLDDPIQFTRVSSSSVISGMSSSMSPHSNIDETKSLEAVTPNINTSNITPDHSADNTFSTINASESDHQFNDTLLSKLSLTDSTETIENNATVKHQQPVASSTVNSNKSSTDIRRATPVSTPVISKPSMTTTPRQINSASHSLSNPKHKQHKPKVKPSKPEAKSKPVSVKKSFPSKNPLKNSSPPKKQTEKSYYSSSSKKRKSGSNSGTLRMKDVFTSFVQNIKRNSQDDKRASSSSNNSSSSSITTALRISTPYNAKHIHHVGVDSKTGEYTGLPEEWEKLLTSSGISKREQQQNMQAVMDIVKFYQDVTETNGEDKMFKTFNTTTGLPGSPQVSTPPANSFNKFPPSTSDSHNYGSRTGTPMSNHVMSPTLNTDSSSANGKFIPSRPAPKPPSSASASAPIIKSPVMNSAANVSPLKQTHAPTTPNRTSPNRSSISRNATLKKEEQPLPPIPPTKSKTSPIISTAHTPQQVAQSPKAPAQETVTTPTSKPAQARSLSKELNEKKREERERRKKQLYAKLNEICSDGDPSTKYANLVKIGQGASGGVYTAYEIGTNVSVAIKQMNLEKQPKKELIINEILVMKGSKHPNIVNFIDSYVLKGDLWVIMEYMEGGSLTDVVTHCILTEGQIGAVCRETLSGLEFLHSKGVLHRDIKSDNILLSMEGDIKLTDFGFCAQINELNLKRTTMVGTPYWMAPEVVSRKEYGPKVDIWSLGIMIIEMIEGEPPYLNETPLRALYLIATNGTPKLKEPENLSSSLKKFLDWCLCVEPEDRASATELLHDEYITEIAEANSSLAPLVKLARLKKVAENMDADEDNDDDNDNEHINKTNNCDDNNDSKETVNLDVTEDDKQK

B1: Ste20p^495-877 (enzyme)
chain: MNSAANVSPLKQTHAPTTPNRTSPNRSSISRNATLKKEEQPLPPIPPTKSKTSPIISTAHTPQQVAQSPKAPAQETVTTPTSKPAQARSLSKELNEKKREERERRKKQLYAKLNEICSDGDPSTKYANLVKIGQGASGGVYTAYEIGTNVSVAIKQMNLEKQPKKELIINEILVMKGSKHPNIVNFIDSYVLKGDLWVIMEYMEGGSLTDVVTHCILTEGQIGAVCRETLSGLEFLHSKGVLHRDIKSDNILLSMEGDIKLTDFGFCAQINELNLKRTTMVGTPYWMAPEVVSRKEYGPKVDIWSLGIMIIEMIEGEPPYLNETPLRALYLIATNGTPKLKEPENLSSSLKKFLDWCLCVEPEDRASATELLHDEYITEIAEA
notes: Overexpressed from the GAL1 promoter (pDH171) in cells deleted for STE20; also called STE20^495-877
FUS1::lacZ expression, Basal [1]: < 0.1 | FUS1::lacZ expression, Induced [1]: < 0.1 | G1 arrest [1]: - | Mating efficiencies (%) [1]: 0.02% | Shmoo formation [1]: - | binding result [2]: no binding

B2
FUS1::lacZ expression [1]: 274 | FUS1::lacZ expression, Basal [1]: 0.1 | FUS1::lacZ expression, Induced [1]: 221 | G1 arrest [1]: + | Mating efficiencies (%) [1]: 72.7% and 89.8% | Shmoo formation [1]: + | fold increase in the interaction after pheromone treatment [3]: ~5 fold

B3
binding result [4]: binds

B4: HA-Ste18p (other, Saccharomyces cerevisiae (yeast), UniProt P18852 1-110, looked up, not shown: small tags and cut ends)
chain: MTSVQNSPRLQQPQEQQQQQQQLSLKIKQLKLKRINELNNKLRKELSRERITASNACLTIINYTSNTKDYTLPELWGYPVAGSNHFIEGLKNAQKNSQMSNSNSVCCTLM
notes: In vitro-translated from pBTL65; also called in vitro-translated HA-Ste18p; γ-subunit of the mating response G-protein
binding result [5]: no binding
